Consider 1 molecule from patent US20200385434A1 (VOLUTION IMMUNO PHARMACEUTICALS, published 2020).

In this assay the target is T1, human complement component C5 (human, UniProt P01031 19-673; P01031 678-1676).
T1 construct: Purified human C5 was amine-coupled to a CM3 sensor chip for SPR; In the CH50 assay the C5 is the one present in pooled normal human serum; Native C5 is a disulphide-linked two-chain protein made from one precursor; also called human C5
As to the kind of experiment: SPR (BIAcore 2000, 25 C), human C5 amine-coupled to a CM3 chip, Coversin injected at 0-96 nM, global Langmuir fit. A general note: SPR reads the build-up and loss of mass on a sensor chip optically.

Broadly, the Kd is the equilibrium constant for the complex coming apart. Lower therefore signals a tighter complex.

T1 sequence (P01031 19-673 limits assumed, chain 1 of 2): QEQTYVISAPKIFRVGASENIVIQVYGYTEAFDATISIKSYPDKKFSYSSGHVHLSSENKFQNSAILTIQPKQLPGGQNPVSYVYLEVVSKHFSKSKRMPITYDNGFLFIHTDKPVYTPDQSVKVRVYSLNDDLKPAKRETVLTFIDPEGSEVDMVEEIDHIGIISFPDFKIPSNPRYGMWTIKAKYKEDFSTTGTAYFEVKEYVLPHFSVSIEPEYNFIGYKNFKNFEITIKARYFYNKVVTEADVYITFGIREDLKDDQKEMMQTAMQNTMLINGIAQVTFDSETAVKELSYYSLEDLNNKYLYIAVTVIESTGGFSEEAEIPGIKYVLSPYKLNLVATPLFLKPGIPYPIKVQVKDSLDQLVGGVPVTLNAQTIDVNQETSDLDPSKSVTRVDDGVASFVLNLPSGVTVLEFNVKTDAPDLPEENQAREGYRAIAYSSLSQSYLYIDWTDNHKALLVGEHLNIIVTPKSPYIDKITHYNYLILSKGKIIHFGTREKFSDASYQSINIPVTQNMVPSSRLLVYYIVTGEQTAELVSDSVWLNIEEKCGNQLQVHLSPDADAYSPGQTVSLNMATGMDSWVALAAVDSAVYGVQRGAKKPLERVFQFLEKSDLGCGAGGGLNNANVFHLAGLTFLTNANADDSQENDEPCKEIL
T1 sequence (P01031 678-1676 limits assumed, chain 2 of 2): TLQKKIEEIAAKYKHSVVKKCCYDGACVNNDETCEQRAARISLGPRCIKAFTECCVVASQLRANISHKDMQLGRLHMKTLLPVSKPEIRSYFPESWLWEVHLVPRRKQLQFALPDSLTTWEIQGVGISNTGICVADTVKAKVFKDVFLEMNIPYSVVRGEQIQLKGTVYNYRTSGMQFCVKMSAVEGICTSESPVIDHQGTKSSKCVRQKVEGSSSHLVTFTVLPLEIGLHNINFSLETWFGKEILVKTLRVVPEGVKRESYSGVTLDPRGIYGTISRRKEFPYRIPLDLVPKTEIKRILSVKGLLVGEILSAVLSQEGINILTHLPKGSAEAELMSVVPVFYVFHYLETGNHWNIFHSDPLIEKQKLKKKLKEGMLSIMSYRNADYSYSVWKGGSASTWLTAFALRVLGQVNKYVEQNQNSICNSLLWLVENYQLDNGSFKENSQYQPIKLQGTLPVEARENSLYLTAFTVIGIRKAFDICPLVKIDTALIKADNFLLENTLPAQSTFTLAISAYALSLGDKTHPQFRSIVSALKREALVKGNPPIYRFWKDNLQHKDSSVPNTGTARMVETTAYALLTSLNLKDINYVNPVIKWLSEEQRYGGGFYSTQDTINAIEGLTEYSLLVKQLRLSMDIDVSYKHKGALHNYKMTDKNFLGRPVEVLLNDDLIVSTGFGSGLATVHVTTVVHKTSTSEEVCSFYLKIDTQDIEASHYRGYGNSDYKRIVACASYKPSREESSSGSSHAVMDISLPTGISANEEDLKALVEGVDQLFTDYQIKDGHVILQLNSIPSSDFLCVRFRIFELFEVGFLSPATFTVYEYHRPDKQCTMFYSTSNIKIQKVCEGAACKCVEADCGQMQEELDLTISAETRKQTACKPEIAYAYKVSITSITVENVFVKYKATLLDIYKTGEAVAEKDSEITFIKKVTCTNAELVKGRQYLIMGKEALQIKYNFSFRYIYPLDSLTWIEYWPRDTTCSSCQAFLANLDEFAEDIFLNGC

B1: wild type Coversin (Ornithodoros moubata) (other)
chain: DSESDCTGSEPVDAFQAFSEGKEAYVLVRSTDPKARDCLKGEPAGEKQDNTLPVMMTFKNGTDWASTDWTFTLDGAKVTATLGNLTQNREVVYDSQSHHCHVDKVEKEVPDYEMWMLDAGGLEVEVECCRQKLEELASGRNQMYPHLKDC
notes: also called Coversin wild type; unmodified Coversin polypeptide
As to B1, the affinity, expressed as Kd, was 1.45 nM.
